How the values were obtained:
[1] = target: T1, Interleukin-6 (IL-6) ((aptamer stated to be specific to mouse IL-6)) (UniProt P08505); experiment: manufacturer value; conditions: 5' amine; 0.01x PBS with 2 mM MgCl2, pH ~7.4 (or adjusted to ~3.64), 10 min exposure per concentration, temperature not stated; aptamer immobilized on graphene; cited from earlier work
T1 sequence: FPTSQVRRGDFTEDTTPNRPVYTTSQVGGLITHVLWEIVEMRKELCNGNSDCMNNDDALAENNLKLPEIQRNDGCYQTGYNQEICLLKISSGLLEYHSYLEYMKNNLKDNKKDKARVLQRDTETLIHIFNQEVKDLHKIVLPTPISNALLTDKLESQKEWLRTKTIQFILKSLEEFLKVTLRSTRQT

[2] = target: T1, Interleukin-6 (IL-6) ((aptamer stated to be specific to mouse IL-6)); experiment: GFET (graphene field-effect transistor), Hill-Langmuir fit, n = 0.3; conditions: pH ~3.64, 2 mM MgCl2; 5' amine coupled to 1-pyrenebutyric acid NHS ester (5' pyrene); 0.01x PBS with 2 mM MgCl2, pH ~7.4 (or adjusted to ~3.64), 10 min exposure per concentration, temperature not stated; aptamer immobilized on graphene

| Substance | Kd [1] | Kd [2] |
| --- | --- | --- |
| IL-6 aptamer ATW0077, as supplied (manufacturer Kd) | 5.4 nM | – |
| IL-6 aptamer ATW0077 (Base Pair Biotechnologies), pyrene-tagged (PTDA) | – | 3.4 nM |
